Laboratory results reported in the Human Domainome abundance scans (Beltran et al. 2025).
± gives the uncertainty stated by the source.

test: abundance fitness (aPCA) (normalised: wild type 0, dead -1); higher = more abundant; growth selection in yeast, the domain comes from the species named; details: Saccharomyces cerevisiae (strain ATCC 204508 / S288c)

Substance	abundance fitness
E3 ubiquitin-protein ligase RSP5 G336Y, P39940	-0.815 ± 0.19
E3 ubiquitin-protein ligase RSP5 G345C, P39940	-0.364 ± 0.06
E3 ubiquitin-protein ligase RSP5 G345D, P39940	-0.271 ± 0.26
E3 ubiquitin-protein ligase RSP5 G345E, P39940	-0.312 ± 0.057
E3 ubiquitin-protein ligase RSP5 G345K, P39940	0.148 ± 0.11
E3 ubiquitin-protein ligase RSP5 G345L, P39940	-0.303 ± 0.062
E3 ubiquitin-protein ligase RSP5 G345M, P39940	-0.14 ± 0.074
E3 ubiquitin-protein ligase RSP5 G345P, P39940	-0.717 ± 0.084
E3 ubiquitin-protein ligase RSP5 G345Q, P39940	-0.202 ± 0.08
E3 ubiquitin-protein ligase RSP5 G345R, P39940	-0.219 ± 0.047
E3 ubiquitin-protein ligase RSP5 G345T, P39940	-0.665 ± 0.069
E3 ubiquitin-protein ligase RSP5 G345W, P39940	-0.466 ± 0.049
E3 ubiquitin-protein ligase RSP5 H352A, P39940	-0.236 ± 0.045
E3 ubiquitin-protein ligase RSP5 H352C, P39940	-0.384 ± 0.067
E3 ubiquitin-protein ligase RSP5 H352D, P39940	-0.325 ± 0.099
E3 ubiquitin-protein ligase RSP5 H352E, P39940	-0.296 ± 0.056
E3 ubiquitin-protein ligase RSP5 H352G, P39940	-0.229 ± 0.04
E3 ubiquitin-protein ligase RSP5 H352I, P39940	-0.046 ± 0.16
E3 ubiquitin-protein ligase RSP5 H352K, P39940	-0.176 ± 0.074
E3 ubiquitin-protein ligase RSP5 H352L, P39940	-0.235 ± 0.057
E3 ubiquitin-protein ligase RSP5 H352M, P39940	-0.104 ± 0.053
E3 ubiquitin-protein ligase RSP5 H352N, P39940	0.049 ± 0.085
E3 ubiquitin-protein ligase RSP5 H352P, P39940	-0.636 ± 0.05
E3 ubiquitin-protein ligase RSP5 H352Q, P39940	-0.19 ± 0.086
E3 ubiquitin-protein ligase RSP5 H352R, P39940	-0.253 ± 0.046
E3 ubiquitin-protein ligase RSP5 H352S, P39940	-0.297 ± 0.051

Substance	abundance fitness
E3 ubiquitin-protein ligase RSP5 H352T, P39940	-0.197 ± 0.055
E3 ubiquitin-protein ligase RSP5 H352V, P39940	-0.361 ± 0.056
E3 ubiquitin-protein ligase RSP5 H352W, P39940	-0.223 ± 0.049
E3 ubiquitin-protein ligase RSP5 H352Y, P39940	-0.176 ± 0.12
E3 ubiquitin-protein ligase RSP5 L330A, P39940	0.005 ± 0.046
E3 ubiquitin-protein ligase RSP5 L330C, P39940	0.05 ± 0.062
E3 ubiquitin-protein ligase RSP5 L330D, P39940	0.02 ± 0.065
E3 ubiquitin-protein ligase RSP5 L330E, P39940	0.013 ± 0.063
E3 ubiquitin-protein ligase RSP5 L330F, P39940	-0.014 ± 0.071
E3 ubiquitin-protein ligase RSP5 L330G, P39940	-0.087 ± 0.043
E3 ubiquitin-protein ligase RSP5 L330H, P39940	-0.048 ± 0.067
E3 ubiquitin-protein ligase RSP5 L330I, P39940	0.007 ± 0.062
E3 ubiquitin-protein ligase RSP5 L330K, P39940	-0.023 ± 0.056
E3 ubiquitin-protein ligase RSP5 L330M, P39940	0.089 ± 0.073
E3 ubiquitin-protein ligase RSP5 L330N, P39940	0.054 ± 0.08
E3 ubiquitin-protein ligase RSP5 L330P, P39940	-0.058 ± 0.069
E3 ubiquitin-protein ligase RSP5 L330Q, P39940	-0.024 ± 0.053
E3 ubiquitin-protein ligase RSP5 L330R, P39940	-0.088 ± 0.045
E3 ubiquitin-protein ligase RSP5 L330S, P39940	-0.055 ± 0.05
E3 ubiquitin-protein ligase RSP5 L330T, P39940	-0.044 ± 0.062
E3 ubiquitin-protein ligase RSP5 L330V, P39940	-0.019 ± 0.041
E3 ubiquitin-protein ligase RSP5 L330W, P39940	-0.161 ± 0.054
E3 ubiquitin-protein ligase RSP5 L330Y, P39940	-0.003 ± 0.08
E3 ubiquitin-protein ligase RSP5 L333A, P39940	-0.648 ± 0.05
E3 ubiquitin-protein ligase RSP5 L333C, P39940	-0.428 ± 0.06
E3 ubiquitin-protein ligase RSP5 L333D, P39940	-0.472 ± 0.14

Substance	abundance fitness
E3 ubiquitin-protein ligase RSP5 L333E, P39940	-0.64 ± 0.075
E3 ubiquitin-protein ligase RSP5 L333F, P39940	-0.034 ± 0.054
E3 ubiquitin-protein ligase RSP5 L333G, P39940	-0.708 ± 0.043
E3 ubiquitin-protein ligase RSP5 L333H, P39940	-0.451 ± 0.07
E3 ubiquitin-protein ligase RSP5 L333I, P39940	-0.227 ± 0.067
E3 ubiquitin-protein ligase RSP5 L333K, P39940	-0.6 ± 0.09
E3 ubiquitin-protein ligase RSP5 L333M, P39940	-0.037 ± 0.097
E3 ubiquitin-protein ligase RSP5 L333N, P39940	-0.627 ± 0.1
E3 ubiquitin-protein ligase RSP5 L333P, P39940	-0.63 ± 0.054
E3 ubiquitin-protein ligase RSP5 L333S, P39940	-0.654 ± 0.053
E3 ubiquitin-protein ligase RSP5 L333T, P39940	-0.572 ± 0.054
E3 ubiquitin-protein ligase RSP5 L333V, P39940	-0.447 ± 0.05
E3 ubiquitin-protein ligase RSP5 L333W, P39940	-0.331 ± 0.052
E3 ubiquitin-protein ligase RSP5 N353D, P39940	-0.147 ± 0.15
E3 ubiquitin-protein ligase RSP5 N353E, P39940	-0.149 ± 0.06
E3 ubiquitin-protein ligase RSP5 N353F, P39940	-0.323 ± 0.11
E3 ubiquitin-protein ligase RSP5 N353G, P39940	-0.132 ± 0.043
E3 ubiquitin-protein ligase RSP5 N353H, P39940	-0.563 ± 0.14
E3 ubiquitin-protein ligase RSP5 N353I, P39940	-0.083 ± 0.078
E3 ubiquitin-protein ligase RSP5 N353K, P39940	-0.141 ± 0.08
E3 ubiquitin-protein ligase RSP5 N353L, P39940	-0.278 ± 0.044
E3 ubiquitin-protein ligase RSP5 N353M, P39940	-0.132 ± 0.062
E3 ubiquitin-protein ligase RSP5 N353P, P39940	-0.673 ± 0.065
E3 ubiquitin-protein ligase RSP5 N353Q, P39940	-0.212 ± 0.052
E3 ubiquitin-protein ligase RSP5 N353R, P39940	-0.177 ± 0.04
E3 ubiquitin-protein ligase RSP5 N353S, P39940	-0.109 ± 0.061

Substance	abundance fitness
E3 ubiquitin-protein ligase RSP5 N353T, P39940	-0.113 ± 0.059
E3 ubiquitin-protein ligase RSP5 N353V, P39940	-0.217 ± 0.044
E3 ubiquitin-protein ligase RSP5 N353W, P39940	-0.44 ± 0.061
E3 ubiquitin-protein ligase RSP5 P334A, P39940	-0.61 ± 0.07
E3 ubiquitin-protein ligase RSP5 P334C, P39940	-0.746 ± 0.072
E3 ubiquitin-protein ligase RSP5 P334D, P39940	-0.592 ± 0.091
E3 ubiquitin-protein ligase RSP5 P334E, P39940	-0.689 ± 0.056
E3 ubiquitin-protein ligase RSP5 P334F, P39940	-0.889 ± 0.083
E3 ubiquitin-protein ligase RSP5 P334G, P39940	-0.629 ± 0.044
E3 ubiquitin-protein ligase RSP5 P334H, P39940	-0.658 ± 0.078
E3 ubiquitin-protein ligase RSP5 P334K, P39940	-0.86 ± 0.071
E3 ubiquitin-protein ligase RSP5 P334L, P39940	-0.837 ± 0.072
E3 ubiquitin-protein ligase RSP5 P334M, P39940	-0.702 ± 0.059
E3 ubiquitin-protein ligase RSP5 P334Q, P39940	-0.68 ± 0.056
E3 ubiquitin-protein ligase RSP5 P334R, P39940	-1.03 ± 0.05
E3 ubiquitin-protein ligase RSP5 P334S, P39940	-0.582 ± 0.053
E3 ubiquitin-protein ligase RSP5 P334T, P39940	-0.857 ± 0.069
E3 ubiquitin-protein ligase RSP5 P334V, P39940	-0.966 ± 0.05
E3 ubiquitin-protein ligase RSP5 P334W, P39940	-1.01 ± 0.071
E3 ubiquitin-protein ligase RSP5 P334Y, P39940	-0.627 ± 0.14
E3 ubiquitin-protein ligase RSP5 P343A, P39940	0.013 ± 0.044
E3 ubiquitin-protein ligase RSP5 P343C, P39940	-0.147 ± 0.16
E3 ubiquitin-protein ligase RSP5 P343D, P39940	0.099 ± 0.064
E3 ubiquitin-protein ligase RSP5 P343E, P39940	-0.019 ± 0.043
E3 ubiquitin-protein ligase RSP5 P343F, P39940	-0.417 ± 0.49
